# B1: BSU2381: OYE protein from Bacillus subtilis subsp. subtilis str. 168 (protein)
# chain: MARKLFTPITIKDMTLKNRIVMSPMCMYSSHEKDGKLTPFHMAHYISRAIGQVGLIIVEASAVNPQGRITDQDLGIWSDEHIEGFAKLTEQVKEQGSKIGIQLAHAGRKAELEGDIFAPSAIAFDEQSATPVEMSAEKVKETVQEFKQAAARAKEAGFDVIEIHAAHGYLIHEFLSPLSNHRTDEYGGSPENRYRFLREIIDEVKQVWDGPLFVRVSASDYTDKGLDIADHIGFAKWMKEQGVDLIDCSSGALVHADINVFPGYQVSFAEKIREQADMATGAVGMITDGSMAEEILQNGRADLIFIGRELLRDPFFARTAAKQLNTEIPAPVQYERGW
# B2: EREDCT: 2-enoate reductase (ERED) from Clostridium tyrobutyricum (protein)
# chain: MKNKSLFEPIKIGKVEVKNKISMAPMGAFGLVDNEGCYNQRAVDYYVERAKGGTGLIITSITKVENEIDKVVPGVIPIISINPGRFIMTSSEMTERVHSYGSKIFLQLTMGFGRSGAPGTLLTSQPVSASSVPNYWDPTVTCRELTTSEVEWIVAKFIQGAAIAQKAGFDGVEIHAVHEGYLLDQFTLSIFNRRTDKYGGDLRGRLQLPIEIVQGIKAQVGSDFPVGLRYSVKSCIKDWRQGGLPDEDYVEKGRDLKEGLESAKILEAAGYDELNTDVGTYDAWYWSHPPLYQKDGLYLPYTKELKKVVKIPVIVAGKLGVPQEAEKALDEGGADMIGLARPLLSDAYWPKKVLSGHPERIRPCIGCHVGCLGRGFEGKPLSCAVNPAAGRERYYEIRPAAIPKKVLIAGGGVAGMEAARMAVLRGHKVTLYESTDQLGGEIVPGSVPDFKIDDRRLLDWYRNEMKELKINVIFNTEVTDKLVGKEQPDVVIVATGANDVKIKLPGIEKDKVSTAVDILNGAKKSGKNVLIVGGGLVGCETALYLAKAGKKVAIVEAKDKILDAGKPIPHMNKIMLEDLIKKYNIKVITGNSLLEVTGDGAVLIDNKFKQQEVYADTIVISIGFKSNRKLYNKLHGKVTDLYLIGDAYQTANIMDAIWSGNEIGLNC
# B3: EC5625: OYE protein from Escherichia coli K12 (protein)
# chain: MSSEKLYSPLKVGAITAANRIFMAPLTRLRSIEPGDIPTPLMAEYYRQRASAGLIISEATQISAQAKGYAGAPGIHSPEQIAAWKKITAGVHAENGHMAVQLWHTGRISHASLQPGGQAPVAPSALSAGTRTSLRDENGQAIRVETSMPRALELEEIPGIVNDFRQAIANAREAGFDLVELHSAHGYLLHQFLSPSSNHRTDQYGGSVENRARLVLEVVDAGIEEWGADRIGIRVSPIGTFQNTDNGPNEEADALYLIEQLGKRGIAYLHMSEPDWAGGEPYTDAFREKVRARFHGPIIGAGAYTVEKAETLIGKGLIDAVAFGRDWIANPDLVARLQRKAELNPQRAESFYGGGAEGYTDYPTL
# B4: YST4373: OYE protein from Saccharomyces cerevisiae (protein)
# chain: MPFVKDFKPQALGDTNLFKPIKIGNNELLHRAVIPPLTRMRAQHPGNIPNRDWAVEYYAQRAQRPGTLIITEGTFPSPQSGGYDNAPGIWSEEQIKEWTKIFKAIHENKSFAWVQLWVLGWAAFPDTLARDGLRYDSASDNVYMNAEQEEKAKKANNPQHSITKDEIKQYVKEYVQAAKNSIAAGADGVEIHSANGYLLNQFLDPHSNNRTDEYGGSIENRARFTLEVVDAVVDAIGPEKVGLRLSPYGVFNSMSGGAETGIVAQYAYVLGELERRAKAGKRLAFVHLVEPRVTNPFLTEGEGEYNGGSNKFAYSIWKGPIIRAGNFALHPEVVREEVKDPRTLIGYGRFFISNPDLVDRLEKGLPLNKYDRDTFYKMSAEGYIDYPTYEEALKLGWDKN
# B5: MSMEI_5586: carboxylate reductase (CAR) from M. smegmatis ATCC 700084 (protein)
# chain: MHQLTVTGMNICEVQRLFPRMTSDVHDATDGVTETALDDEQSTRRIAELYATDPEFAAAAPLPAVVDAAHKPGLRLAEILQTLFTGYGDRPALGYRARELATDEGGRTVTRLLPRFDTLTYAQVWSRVQAVAAALRHNFAQPIYPGDAVATIGFASPDYLTLDLVCAYLGLVSVPLQHNAPVSRLAPILAEVEPRILTVSAEYLDLAVESVRDVNSVSQLVVFDHHPEVDDHRDALARAREQLAGKGIAVTTLDAIADEGAGLPAEPIYTADHDQRLAMILYTSGSTGAPKGAMYTEAMVARLWTMSFITGDPTPVINVNFMPLNHLGGRIPISTAVQNGGTSYFVPESDMSTLFEDLALVRPTELGLVPRVADMLYQHHLATVDRLVTQGADELTAEKQAGAELREQVLGGRVITGFVSTAPLAAEMRAFLDITLGAHIVDGYGLTETGAVTRDGVIVRPPVIDYKLIDVPELGYFSTDKPYPRGELLVRSQTLTPGYYKRPEVTASVFDRDGYYHTGDVMAETAPDHLVYVDRRNNVLKLAQGEFVAVANLEAVFSGAALVRQIFVYGNSERSFLLAVVVPTPEALEQYDPAALKAALADSLQRTARDAELQSYEVPADFIVETEPFSAANGLLSGVGKLLRPNLKDRYGQRLEQMYADIAATQANQLRELRRAAATQPVIDTLTQAAATILGTGSEVASDAHFTDLGGDSLSALTLSNLLSDFFGFEVPVGTIVNPATNLAQLAQHIEAQRTAGDRRPSFTTVHGADATEIRASELTLDKFIDAETLRAAPGLPKVTTEPRTVLLSGANGWLGRFLTLQWLERLAPVGGTLITIVRGRDDAAARARLTQAYDTDPELSRRFAELADRHLRVVAGDIGDPNLGLTPEIWHRLAAEVDLVVHPAALVNHVLPYRQLFGPNVVGTAEVIKLALTERIKPVTYLSTVSVAMGIPDFEEDGDIRTVSPVRPLDGGYANGYGNSKWAGEVLLREAHDLCGLPVATFRSDMILAHPRYRGQVNVPDMFTRLLLSLLITGVAPRSFYIGDGERPRAHYPGLTVDFVAEAVTTLGAQQREGYVSYDVMNPHDDGISLDVFVDWLIRAGHPIDRVDDYDDWVRRFETALTALPEKRRAQTVLPLLHAFRAPQAPLRGAPEPTEVFHAAVRTAKVGPGDIPHLDEALIDKYIRDLREFGLI
# Legend:
# [1] = OYE hydrogenation activity screen, NADPH oxidation at 340 nm; type: biochemical; details: 1 mM substrate, 0.25 mM NADPH, 2.5 μg protein; cut-off 0.05 U/mg protein; ND = not detected
# Experimental: 25 putative OYE genes (Table 1) were cloned based on the Pfam domain of the FMN oxidoreductase family PF00724. Purified OYEs were screened for hydrogenation activity against acrolein, 2-cyclohexn-1-one, cis,cis-muconic acid, trans,trans-muconic acid, and 2-hexendioic acid. Substrate specificity was measured spectrophotometrically in 96-well plates by following incubation for 20 min at room temperature in the anaerobic chamber. Buffers and reagents were also degassed and sparged with Ar. Reaction mixtures contained potassium phosphate (50 mM and pH 7.0), NaCl (10 mM), NADPH (0.25 mM), various substrates (1 mM) and protein (2.5 μg) in a final volume of 200 μL. Enzyme reactions were monitored by following the decrease in absorbance at 340 nm (ε340 nm=6,200/M·cm) as a measure of the conversion of the cofactor NADPH to NADP+.
# [2] = Whole-cell biotransformation with E. coli strains over-expressing OYEs; type: cell-based; details: E. coli over-expressing OYE
# [3] = Whole-cell anaerobic biotransformation by E. coli expressing EREDs; type: cell-based; details: 20 mM 2-hexenedioic acid
# [4] = CAR reductase activity, NADPH oxidation at 340 nm; type: biochemical; details: ND = no activity was detected
# Experimental: Reductase activity was measured spectrophotometrically by following the oxidation of NADPH depletion at 340 nm.
# It has been shown that the N. iowensis CAR has a broad substrate range, though its maximal activity was usually observed with aromatic substrates such as benzoic and cinnamic acids. CARs gene sequences homologues to the N. iowensis CAR (Uniprot number: Q6RKB1), were selected from GenBank database. Based on presence of adenylation (AMP-binding PF00501) and reduction (NAD-binding PF07993) domains accompanied with phosphopantetheinyl binding motif (PF00530) 13 CAR genes (mostly from Mycobacterium) were cloned and expressed in E. coli. (Table 4). As CAR activation enzymes, phosphopantetheinyl transferases (PPTs) from E. coli (P19925) and Bacillus subtilis (P39135), were used which were co-expressed with the selected CAR genes from a separate plasmid. Using 1-liter E. coli cultures with overnight induction by IPTG, 12 soluble CAR proteins were purified using affinity chromatography on a Ni-NTA resin.
# [5] = In vitro biotransformation by CARs coupled with aldehyde reductase PP_3370; type: biochemical; details: Table 12 title: 10 mM adipic acid (12 h) in vitro, CARs coupled with PP3370
# [6] = as above; type: biochemical; details: Table 12 title: 10 mM 4-hydroxybutyric acid (12 h) in vitro, CARs coupled with PP3370
# [7] = In vivo whole cell biotransformation by E. coli expressing CARs; type: cell-based; details: 24 h
# Experimental: E. coli cells expressing recombinant CARs with BSU03570 phosphopantetheinyl transferase were grown on LB media with […], supplemented with 2% glycerol aerobically on 37° C., until the culture optical density (OD 600 nm) reached 0.6-0.8. At this point protein expression was induced with 0.4 mM IPTG and substrate (adipic acid or 4-hydroxybutyric acid) for final 10 mM concentration was added. Samples were taken at 6 h, 24 h and 48 h, centrifuged, supernatant was filtered through 10 kDa centrifugal filters. Products were analyzed with HPLC or LC-MS. Negative control experiments were performed using E. coli cells harboring empty plasmids. All results of in vivo experiments are means from at least two independent determinations.
molecule,measurement,setting,value
B1,Activity [U/mg protein] 2-cyclohexen-1-one,[1],0.21 U/mg protein
same,hydrogenation of 2-hexenedioic acid into adipic acid,[2],no hydrogenation
B2,production of adipic acid,[3],inactivity
B3,Activity [U/mg protein] 2-cyclohexen-1-one,[1],0.18 U/mg protein
same,hydrogenation of 2-hexenedioic acid into adipic acid,[2],no hydrogenation
B4,Activity [U/mg protein] 2-cyclohexen-1-one,[1],0.23 U/mg protein
same,Activity [U/mg protein] acrolein,[1],0.17 U/mg protein
same,hydrogenation of 2-hexenedioic acid into adipic acid,[2],no hydrogenation
B5,"Activity [U/mg protein] 4-hydroxybutyric acid, 5 mM",[4],0.058 ± 0.033 U/mg protein
same,"Activity [U/mg protein] adipic acid, 5 mM",[4],0.017 ± 0.005 U/mg protein
same,"In vitro conversion efficiency % to: 1,6-hexanediol",[5],10.2 ± 3.4%
same,In vitro conversion efficiency % to: 6-hydroxyhexanoic acid,[5],30.3 ± 0.4%
same,"In vivo conversion efficiency (%) to: 1,4-butanediol",[6],78.4 ± 6.2%
same,"In vivo conversion efficiency (%) to: 1,4-butanediol",[7]; 10 mM 4-hydroxybutyric acid,78.4 ± 6.2%
same,"In vivo conversion efficiency (%) to: 1,6-hexanediol",[7]; 10 mM adipic acid,10.2 ± 3.4%
same,In vivo conversion efficiency (%) to: 6-hydroxyhexanoic acid,[7]; 10 mM adipic acid,30.3 ± 0.4%
